Data reported in patent US20230374114A1 (published 2023).
Positions count from the first letter of the chain named.

B1: Ab 25 scFv-Fc (scFv, V domains shown)
VH: QVQLVQSGGGLVQPGGSLRLSCAASGFTFSSYWMSWVRQAPGKGLEWVANIKQDGSEKYYVDSVKGRFTISRDNAKNSLYLQMNSLRAEDTAVYYCARGFYYYGAFDIWGQGTTVTVSS
VL: NFMLTQPHSVSESPGKTVTISCTGSSGSIASNYVQWYQQRPGSAPTTVIYEDNQRPSGVPDRFSGSIGSSSNSASLTISGLKTEDEADYYCQSYDSSNHWVFGGGTKLTVL
B2: Ab 28 scFv-Fc (scFv, V domains shown)
VH: QVTLKESGPGLVNPSETLSLTCTVSGASISNSFWSWIRQSPGKGLEWIGYTSYSGNSIYNPSLKSRLTMSIDTSKNQLSLNLRSLTAADTAVYYCARREWIKGHFDYWGQGTLVTVSS
VL: B1 VL with S26G, G68D, H99P, W100V
B3: Ab 20 (scFv, V domains shown)
VH: QVQLVQSGGGSVKPGGSLRLSCAASGYRLSDYYMHWVRQAPGKGLEWVANIKQDGSEKYYVDSVKGRFTISRDNAKNSLYLQMNSLRAEDTAVYYCARVRGWSRGYFDYWGQGTLVTVSS
VL: B1 VL with G68D, T77L
B4: Ab_17 (scFv, V domains shown)
VH: QVQLVQSGGGVVQPGRSLRLSCAASGFTFDDYAMHWVRQVPGKGLEWVSGIDWNSGVIGYADSVKGRFTISRDNVKNSLYLQMNSLRTEDSALYYCAKDIGPGGSGSYYAFDIWGQGTTVTVSS
VL: QSALTQPASVSGSPGQSITISCTGTSSDVGGSKYVSWYQQHPGKAPKVMIYDVTKRPSGVPDRFSGSKSGNTASLTISGLQAEDEADYYCAAWDDSLNGVVFGGGTKLTVL
B5: Ab 19 scFv-Fc (scFv, V domains shown)
VH: EVQLVESGAEVKKPGESLKISCKGSGYSFTSYWIGWVRQMPGKGLEWMGIIYPGDSDTRYSPSFQGQVTISADKSISTAYLQWSSLKASDTAMYYCARRGDLDAFDIWGQGTMVTVSS
VL: QPGLTQPPAASGTPGQRVTVSCSGASANIGSNAVSWFKQFPETAPRLLISGNTHRPSGVPDRVSGSKSGTSASLTISGLQSDDEADYYCAAWDDSLNGYVFGSGTKVTVL
B6: Ab 21 (scFv, V domains shown)
VH: QVQLVQSGGGLVQPGGSLRLSCATSGFTFDDYAMHWVRQAPGKGLEWVSGISWNSGSIGYVDSVKGRFTISRDNRNNKVYLQMNNLRAEDTAVYYCARDWWGSIDHWGLGTLVTVSS
VL: QSALTQPRSVSGSPGQSVTISCTGTSSDVGGYDYVSWYQQHPGKAPKLIIYDVSKRPSGVPDRFSGSKSGNTASLTVSGLQAEDEADYYCSSYTSSSPVVFGGGTKLTVL
B7: Ab 23 scFv-Fc (scFv, V domains shown)
VH: EVQLVQSGAEVKKPGSSVKVSCRSSGGTFSTYGITWVRQAPGQGLEWMGRIIPSLGIPNYAQKFQGRVTITADTSVSTAWMELSSLESDDTAIYYCARENIDLATNDFWGQGTLVTVSS
VL: QSALTQPPSASGSPGQSVTISCTGTSRDIGAYGYVSWYQQVPGKAPKLIIYEVRNRPSGVSSRFSGSKSGNTASLTISGLQAEDEADYYCSSYTSSSTLDVVFGGGTKLTVL
B8: Ab_18 (scFv, V domains shown)
VH: EVQLVQSGGGVVQPGRSLRVSCAASGFSFSRYGMHWVRQAPGKGLEWVAFIRHDGSKKYYADSVEGRFTISRDNSRNTVSLEMNSLRGEDTAVYYCAKDGRLEAALDDWGQGTLVTVSS
VL: NFMLTQPHSMSGSAGKTVTVSCIRSSGSIANNFVQWYQQRPGSAPTTVIYEDNQRPSGVPDRFSGSIDSSSNSASLTISGLKTEDEADYYCQSYDSSNLVFGGGTRLTVL
B9: Ab 26 scFv-Fc (scFv, V domains shown)
VH: QVQLVQSGGGLVQPGRSLRLSCAASGFTFDDYAMHWVRQVPGKGLEWVSGIDWNSGVIGYADSVKGRFTISRDNAKNSLYLQMNSLRAEDTALYYCAKDAYSYGFLGAFDIWGQGTMVTVSS
VL: LPVLTQPPSVSVAPGQTASITCGGDNIRTKGVHWYQQKPGQAPLLVIYYASDRPSGIPERFSGSSSGNTATLTISRVEAGDEADYYCQVWDSSSDLVVFGGGTTLTVL
B10: Ab_16 (scFv, V domains shown)
VH: QVQLVQSGGGVVQPGRSLRLSCAASGFTFSNYGMHWVRQAPGKGLEWVALIWERGSKKDYADSVKGRFTVSRDNSKNTLYLQMNSLRPEDTAVYFCAREGISMTGAEYFQHWGQGTLVTVSS
VL: QSVLTQPPSVSGSPGQRVTMSCTGSSSNIGAGYDVHWYQQVPGAAPRLLIYGTNNRPSGVPDRFSGSKSGTSASLTITGLQAEDEADYYCQSYDNSLTDPYVFGTGTKVTVL
B11: Ab 14 scFv-Fc (scFv, V domains shown)
VH: QVQLQQSGPGLVKPSQTLSLTCAISGDSVSSNSAAWNWIRQSPARGLEWLGRTYYRSRWYNDYAISMKSRITINPDTSKNQFSLQLESVTPEDTAVYYCAREIRGFDYWGQGTLVTVSS
VL: QSVLTQPPSASGSPGQSVTISCTGTSSDVGAYNFVSWYQHHPGKAPKLIIYDFNKRPSGVPDRFSGSKSGNTASLTVSGLQADDEADYYCSSYAGSNNFDVVFGGGTKLTVL
B12: Ab 27 scFv-Fc (scFv, V domains shown)
VH: QVQLVQSGTEVKKPGASVKVSCKASGYSFTGSHLHWVRQAPGQGLEWMGWINPDSGVINYAQKFQGRVTLTRDTSISTAYMELSGLRSDDTAVYYCARDKAIGYVWALDYWGQGTLVTVSS
VL: QSALTQPPSVSGSPGQSVTISCTGTSSDVGTYNRVSWYQQPPGKAPKLMIYEVSNRPSGVSNRFSGSKSGNTASLTISGLQAEDEADYYCSSYTRTFTYVFGTGTKVTVL
B13: Ab 15 scFv-Fc (scFv, V domains shown)
VH: QVQLVQSGGGLVKPGRSLRLSCTASGFTFGDYAMSWFRQAPGKGLEWVGFIRSKAYGGTTGYAASVKGRFTISRDDSKSIAYLQMNSLKTEDTAVYYCTTADDDMDVWGKGTTVTVSS
VL: NFMLTQPHSVSESPGKTVTISCTRSSGTIASNYVQWYQQRPGSAPTTVIYEDNQRPSGVPDRFSGSIDRSSNSASLTISGLTPDDEADYYCQSYDTSNHYVFGTGTKVTVL
B14: Ab_13 (scFv, V domains shown)
VH: QVTLKESGPKLVKPTQTLTLTCTFSGFSLSTSGVGVGWIRQPPGKALEWLALIYWDDDKRYSPSLKSRLTIAKDTSKYQVVLTMTNMDPVDTATYYCARISGSGYFYPFDIWGQGTMVTVSA
VL: B1 VL with G24R, G68D, H99L
B15: Ab 12 Fab (Fab, V domains shown)
VH: EVQLVESGPGVVSPSATLFLTCSVSGGSIRTHSWNWIRQPPGKPLEWIGFIHHSGATNKNPSLKSRVTISSDTSKNEFSLTLTSVTAADTAVYYCARGPGILSYWSRGTLVTVSS
VL: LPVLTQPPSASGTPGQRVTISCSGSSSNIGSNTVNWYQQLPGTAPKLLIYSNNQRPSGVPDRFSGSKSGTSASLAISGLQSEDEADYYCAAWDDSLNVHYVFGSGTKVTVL
B16: Ab 12 IgG (antibody, V domains shown)
VH: B15 VH
VL: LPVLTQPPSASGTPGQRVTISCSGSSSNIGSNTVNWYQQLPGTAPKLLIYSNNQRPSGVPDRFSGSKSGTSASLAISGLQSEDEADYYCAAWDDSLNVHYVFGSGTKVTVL
B17: Ab 12 scFv-Fc (S1-R3-T1-H7) (scFv, V domains shown)
VH: B15 VH
VL: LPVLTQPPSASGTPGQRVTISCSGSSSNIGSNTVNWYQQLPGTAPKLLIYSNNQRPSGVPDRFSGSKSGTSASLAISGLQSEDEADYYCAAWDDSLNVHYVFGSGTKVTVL

Each binder was assayed against biotinylated RBD (BLI sensors) (UniProt P0DTC2 319-537) (assay: BLI).

B1 and B2 are within 1.5-fold of each other in Kd: 0.223 nM for the first, 0.166 nM for the second.

Compared with B3, B4 is 2.2-fold lower in Kd: 1.9 nM for the first, 0.882 nM for the second.

Going from B5 to B6, the Kd rises from 0.533 nM to 1.48 nM (2.8-fold). The first binds more tightly here.

Going from B7 to B8, the Kd rises from under 0.001 nM to 2.31 nM. The first binds more tightly here.

B9 and B10 are within 1.5-fold of each other in Kd: 0.704 nM for the first, 0.959 nM for the second.

B11 and B12 are within 1.5-fold of each other in Kd: 0.911 nM for the first, 0.906 nM for the second.

Compared with B13, B14 is 7.2-fold lower in Kd: 6.61 nM for the first, 0.922 nM for the second.

Each binder was assayed against SARS2 spike on transduced 293T cells (UniProt P0DTC2 14-1273) (assay: FACS).

Going from B15 to B16, the EC50 falls from 0.582 nM to 0.00588 nM (99-fold). The second is the more potent here.

B17 gave an EC50 of 0.0237 nM.
